Patent publication US8933039
Changes are numbered by the printed parent chain.

Assays:
[His2]hGLP-2(1-33) = target: T1, [His2]hGLP-2(1-33)
T1 chain: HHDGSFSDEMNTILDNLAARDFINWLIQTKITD

[Pro3]hGLP-2(1-33) = target: T2, [Pro3]hGLP-2(1-33)
T2 chain: T1 chain with H2A, D3P

[1] = target: T3, [Gly2, Tyr34]hGLP-2(1-34)
T3 chain: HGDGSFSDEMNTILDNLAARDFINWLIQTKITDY

[Asn2]hGLP-2(1-33) = target: T4, [Asn2]hGLP-2(1-33)
T4 chain: T1 chain with H2N

[Phe25]hGLP-2(1-33) = target: T5, [Phe25]hGLP-2(1-33)
T5 chain: T1 chain with H2A, W25F

[Ser2,Gln3]hGLP-2(1-33) = target: T6, [Ser2,Gln3]hGLP-2(1-33)
T6 chain: T1 chain with H2S, D3Q

[PhGly2]hGLP-2(1-33) = target: T7, [PhGly2]hGLP-2(1-33)
T7 chain: T1 chain with H2X

[Ala4]ratGLP-2(1-33) = target: T8, [Ala4]ratGLP-2(1-33)
T8 chain: T1 chain with H2A, G4A, A19T

[Glu2]hGLP-2(1-33) = target: T9, [Glu2]hGLP-2(1-33)
T9 chain: T1 chain with H2E

[Val2]hGLP-2(1-33) = target: T10, [Val2]hGLP-2(1-33)
T10 chain: T1 chain with H2V

[DAla2]ratGLP-2(1-33) = target: T11, [DAla2]ratGLP-2(1-33)
T11 chain: T1 chain with H2A, A19T

[Val2]GLP-2(1-33) = target: T12, [Val2]GLP-2(1-33)
T12 chain: T1 chain with H2V, A19T

[Pro1]hGLP-2(1-33) = target: T13, [Pro1]hGLP-2(1-33)
T13 chain: T1 chain with H1P, H2A

[Met2]hGLP-2(1-33) = target: T14, [Met2]hGLP-2(1-33)
T14 chain: T1 chain with H2M

[Ser2]hGLP-2(1-33) = target: T15, [Ser2]hGLP-2(1-33)
T15 chain: T1 chain with H2S

[Aib2]hGLP-2(1-33) = target: T16, [Aib2]hGLP-2(1-33)
T16 chain: T1 chain with H2X

[Gly2]hGLP-2(1-33) = target: T17, [Gly2]hGLP-2(1-33)
T17 chain: T1 chain with H2G

[Ala1,Gly2]hGLP-2(1-33) = target: T18, [Ala1,Gly2]hGLP-2(1-33)
T18 chain: T1 chain with H1A, H2G

[bAla2]hGLP-2(1-33) = target: T19, [bAla2]hGLP-2(1-33)
T19 chain: T1 chain with H2X

[2] = target: T20, [Arg-2,Arg-1]ratGLP-2(2-33)
T20 chain: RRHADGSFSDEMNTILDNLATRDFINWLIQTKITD

[Ala5, Ala7]hGLP-2(1-33) = target: T21, [Ala5, Ala7]hGLP-2(1-33)
T21 chain: T1 chain with H2A, S5A, S7A

[Tyr1, Gly2]hGLP-2(1-33) = target: T22, [Tyr1, Gly2]hGLP-2(1-33)
T22 chain: T1 chain with H1Y, H2G

[Pen2]hGLP-2(1-33) = target: T23, [Pen2]hGLP-2(1-33)
T23 chain: T1 chain with H2X

[Glu3]ratGLP-2(1-33) = target: T24, [Glu3]ratGLP-2(1-33)
T24 chain: T1 chain with H2A, D3E, A19T

[Ile2]hGLP-2(1-33) = target: T25, [Ile2]hGLP-2(1-33)
T25 chain: T1 chain with H2I

Ac-ratGLP-2(1-33) = target: T26, Ac-ratGLP-2(1-33)
T26 chain: T1 chain with H2A, A19T

[aAbu2]hGLP-2(1-33) = target: T27, [aAbu2]hGLP-2(1-33)
T27 chain: T1 chain with H2X

[Asp2]hGLP-2(1-33) = target: T28, [Asp2]hGLP-2(1-33)
T28 chain: T1 chain with H2D

[desNH2Tyr1]hGLP-2(1-33) = target: T29, [desNH2Tyr1]hGLP-2(1-33)
T29 chain: T1 chain with H1Y, H2A

[Arg-l]ratGLP-2(-1-33) = target: T30, [Arg-l]ratGLP-2(-1-33)
T30 chain: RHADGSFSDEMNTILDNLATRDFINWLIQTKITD

hGLP-2(1-33) = target: T31, hGLP-2(1-33)
T31 chain: T1 chain with H2A

[Gly2,Ala24]hGLP-2(1-33) = target: T32, [Gly2,Ala24]hGLP-2(1-33)
T32 chain: T1 chain with H2G, N24A

[Glu33]hGLP-2(1-33) = target: T33, [Glu33]hGLP-2(1-33)
T33 chain: T1 chain with H2A, D33E

ratGLP-2(1-33) = target: T34, ratGLP-2(1-33)
T34 chain: T1 chain with H2A, A19T

[Pro2]hGLP-2(1-33) = target: T35, [Pro2]hGLP-2(1-33)
T35 chain: T1 chain with H2P

[Nval2]hGLP-2(1-33) = target: T36, [Nval2]hGLP-2(1-33)
T36 chain: T1 chain with H2X

[3] = target: T37, [Gly2, Arg34]hGLP-2(1-34)
T37 chain: T3 chain with Y34R

[Gly2,Ala3]hGLP-2(1-33) = target: T38, [Gly2,Ala3]hGLP-2(1-33)
T38 chain: T1 chain with H2G, D3A

[Phe2]hGLP-2(1-33) = target: T39, [Phe2]hGLP-2(1-33)
T39 chain: T1 chain with H2F

[Gly2,Ala4]hGLP-2(1-33) = target: T40, [Gly2,Ala4]hGLP-2(1-33)
T40 chain: T1 chain with H2G, G4A

[Tyr1]ratGLP-2(1-33) = target: T41, [Tyr1]ratGLP-2(1-33)
T41 chain: T1 chain with H1Y, H2A, A19T

[Lys2]hGLP-2(1-33) = target: T42, [Lys2]hGLP-2(1-33)
T42 chain: T1 chain with H2K

[Tyr25]hGLP-2(1-33) = target: T43, [Tyr25]hGLP-2(1-33)
T43 chain: T1 chain with H2A, W25Y

[D-Ala2]hGLP-2(1-33) = target: T44, [D-Ala2]hGLP-2(1-33)
T44 chain: T1 chain with H2A

[Gly2]ratGLP-2(1-33) = target: T45, [Gly2]ratGLP-2(1-33)
T45 chain: T1 chain with H2G, A19T

[tBuGly2]hGLP-2 = target: T46, [tBuGly2]hGLP-2
T46 chain: T1 chain with H2X

[Tyr2]hGLP-2(1-33) = target: T47, [Tyr2]hGLP-2(1-33)
T47 chain: T1 chain with H2Y

[Asp1]hGLP-2(1-33) = target: T48, [Asp1]hGLP-2(1-33)
T48 chain: T1 chain with H1D, H2A

[Arg30]hGLP-2(1-33) = target: T49, [Arg30]hGLP-2(1-33)
T49 chain: T1 chain with H2A, K30R

[Gly2,Ala5]hGLP-2(1-33) = target: T50, [Gly2,Ala5]hGLP-2(1-33)
T50 chain: T1 chain with H2G, S5A

[Thr2]hGLP-2(1-33) = target: T51, [Thr2]hGLP-2(1-33)
T51 chain: T1 chain with H2T

[Gln2]hGLP-2(1-33) = target: T52, [Gln2]hGLP-2(1-33)
T52 chain: T1 chain with H2Q

B1: human placental DPP-IV (Calbiochem, La Jolla, Calif., cat. #317624) (protein)
chain: MKTPWKVLLGLLGAAALVTIITVPVVLLNKGTDDATADSRKTYTLTDYLKNTYRLKLYSLRWISDHEYLYKQENNILVFNAEYGNSSVFLENSTFDEFGHSINDYSISPDGQFILLEYNYVKQWRHSYTASYDIYDLNKRQLITEERIPNNTQWVTWSPVGHKLAYVWNNDIYVKIEPNLPSYRITWTGKEDIIYNGITDWVYEEEVFSAYSALWWSPNGTFLAYAQFNDTEVPLIEYSFYSDESLQYPKTVRVPYPKAGAVNPTVKFFVVNTDSLSSVTNATSIQITAPASMLIGDHYLCDVTWATQERISLQWLRRIQNYSVMDICDYDESSGRWNCLVARQHIEMSTTGWVGRFRPSEPHFTLDGNSFYKIISNEEGYRHICYFQIDKKDCTFITKGTWEVIGIEALTSDYLYYISNEYKGMPGGRNLYKIQLSDYTKVTCLSCELNPERCQYYSVSFSKEAKYYQLRCSGPGLPLYTLHSSVNDKGLRVLEDNSALDKMLQNVQMPSKKLDFIILNETKFWYQMILPPHFDKSKKYPLLLDVYAGPCSQKADTVFRLNWATYLASTENIIVASFDGRGSGYQGDKIMHAINRRLGTFEVEDQIEAARQFSKMGFVDNKRIAIWGWSYGGYVTSMVLGSGSGVFKCGIAVAPVSRWEYYDSVYTERYMGLPTPEDNLDHYRNSTVMSRAENFKQVEYLLIHGTADDNVHFQQSAQISKALVDVGVDFQAMWYTDEDHGIASSTAHQHIYTHMSHFIKQCFSLP
[His2]hGLP-2(1-33)
  % Cleaved by DPP-IV: 0%
[Pro3]hGLP-2(1-33)
  % Cleaved by DPP-IV: 0%
[1]
  % Cleaved by DPP-IV: 0%
[Asn2]hGLP-2(1-33)
  % Cleaved by DPP-IV: 0%
[Phe25]hGLP-2(1-33)
  % Cleaved by DPP-IV: 54%
[Ser2,Gln3]hGLP-2(1-33)
  % Cleaved by DPP-IV: 0%
[PhGly2]hGLP-2(1-33)
  % Cleaved by DPP-IV: 0%
[Ala4]ratGLP-2(1-33)
  % Cleaved by DPP-IV: 72%
[Glu2]hGLP-2(1-33)
  % Cleaved by DPP-IV: 0%
[Val2]hGLP-2(1-33)
  % Cleaved by DPP-IV: 13%
[DAla2]ratGLP-2(1-33)
  % Cleaved by DPP-IV: 0%
  extent of cleavage after 24 hour incubation (RP-HPLC): No cleavage products were detected
[Val2]GLP-2(1-33)
  % Cleaved by DPP-IV: 0%
[Pro1]hGLP-2(1-33)
  % Cleaved by DPP-IV: 0%
[Met2]hGLP-2(1-33)
  % Cleaved by DPP-IV: 0%
[Ser2]hGLP-2(1-33)
  % Cleaved by DPP-IV: 0%
[Aib2]hGLP-2(1-33)
  % Cleaved by DPP-IV: 0%
[Gly2]hGLP-2(1-33)
  % Cleaved by DPP-IV: 0%
[Ala1,Gly2]hGLP-2(1-33)
  % Cleaved by DPP-IV: 0%
[bAla2]hGLP-2(1-33)
  % Cleaved by DPP-IV: 0%
[2]
  % Cleaved by DPP-IV: 0%
[Ala5, Ala7]hGLP-2(1-33)
  % Cleaved by DPP-IV: 77%
[Tyr1, Gly2]hGLP-2(1-33)
  % Cleaved by DPP-IV: 0%
[Pen2]hGLP-2(1-33)
  % Cleaved by DPP-IV: 20%
[Glu3]ratGLP-2(1-33)
  % Cleaved by DPP-IV: 50%
[Ile2]hGLP-2(1-33)
  % Cleaved by DPP-IV: 0%
Ac-ratGLP-2(1-33)
  % Cleaved by DPP-IV: 0%
[aAbu2]hGLP-2(1-33)
  % Cleaved by DPP-IV: 49%
[Asp2]hGLP-2(1-33)
  % Cleaved by DPP-IV: 0%
[desNH2Tyr1]hGLP-2(1-33)
  % Cleaved by DPP-IV: 15%
[Arg-l]ratGLP-2(-1-33)
  % Cleaved by DPP-IV: 0%
hGLP-2(1-33)
  % Cleaved by DPP-IV: 60%
[Gly2,Ala24]hGLP-2(1-33)
  % Cleaved by DPP-IV: 0%
[Glu33]hGLP-2(1-33)
  % Cleaved by DPP-IV: 55%
ratGLP-2(1-33)
  % Cleaved by DPP-IV: 58%
  extent of cleavage after 24 hour incubation (RP-HPLC): 22% of the control peptide, rGLP-2, was cleaved by DPP-IV
[Pro2]hGLP-2(1-33)
  % Cleaved by DPP-IV: 16%
[Nval2]hGLP-2(1-33)
  % Cleaved by DPP-IV: 0%
[3]
  % Cleaved by DPP-IV: 0%
[Gly2,Ala3]hGLP-2(1-33)
  % Cleaved by DPP-IV: 0%
[Phe2]hGLP-2(1-33)
  % Cleaved by DPP-IV: 0%
[Gly2,Ala4]hGLP-2(1-33)
  % Cleaved by DPP-IV: 0%
[Tyr1]ratGLP-2(1-33)
  % Cleaved by DPP-IV: 100%
[Lys2]hGLP-2(1-33)
  % Cleaved by DPP-IV: 0%
[Tyr25]hGLP-2(1-33)
  % Cleaved by DPP-IV: 48%
[D-Ala2]hGLP-2(1-33)
  % Cleaved by DPP-IV: 0%
[Gly2]ratGLP-2(1-33)
  % Cleaved by DPP-IV: 0%
  extent of cleavage after 24 hour incubation (RP-HPLC): No cleavage products were detected
[tBuGly2]hGLP-2
  % Cleaved by DPP-IV: 0%
[Tyr2]hGLP-2(1-33)
  % Cleaved by DPP-IV: 0%
[Asp1]hGLP-2(1-33)
  % Cleaved by DPP-IV: 0%
[Arg30]hGLP-2(1-33)
  % Cleaved by DPP-IV: 59%
[Gly2,Ala5]hGLP-2(1-33)
  % Cleaved by DPP-IV: 0%
[Thr2]hGLP-2(1-33)
  % Cleaved by DPP-IV: 0%
[Gln2]hGLP-2(1-33)
  % Cleaved by DPP-IV: 0%
